Each block holds one binder with its values, some of them ahead of it.
Assays:
B7-H4-Ig fusion protein [1] = molecular target: T1, B7-H4-Ig fusion protein (human); assay: antibody captured on B7-H4-Ig fusion protein, detected with biotin-anti-mouse IgG1 and Europium-Streptavidin
T1 construct: also called human B7-H4 Ig
Source text: Serum was collected for initial evaluation of PK (peak and trough post 4th dose). Antibody was captured from serum with a B7-H4-Ig fusion protein, and detected with biotin-anti-mouse IgG1 (6H3.mIgG1) or IgG2a (6H3.mIgG2a) and detected with Europium-Streptavidin.

B7-H4-Ig fusion protein [2] = molecular target: T1, B7-H4-Ig fusion protein; assay: ELISA, B7-H4 Ig coated on the plate, purified antibody, HRP goat anti-mouse
Description: B7-H4 Ig was coated onto microtiter plates, washed, blocked, and washed again. Varying concentrations of anti-B7-H4 antibodies were allowed to bind. Purified proteins were used for clones H74, 6H3, and 8E11. Conditioned media from hybridomas 2D1, 2H9, and 2E11 were used. Following incubation, the plates were washed. Bound anti-B7-H4 was detected using HRP-conjugated goat anti-mouse (Jackson ImmunoResearch).

[3] = molecular target: T2, B7-H4 fusion protein Variant 1: IgV residues 29-149 of SEQ ID NO:1 (human, UniProt Q7Z7D3 29-149); assay: ELISA, B7-H4 Fc fusion protein immobilized at 1 µg/ml, mouse antibody titrated, anti-mouse Ig HRP
T2 construct: Human IgG1 Fc fusion protein; also called IgV only; not shown: human IgG1 Fc
T2 chain: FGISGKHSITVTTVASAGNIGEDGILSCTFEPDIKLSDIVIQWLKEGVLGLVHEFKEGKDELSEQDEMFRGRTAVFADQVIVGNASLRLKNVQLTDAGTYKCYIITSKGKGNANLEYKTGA
Description: (§1) 100 μl 1 μg/ml human IgG1 Fc fusion proteins diluted in PBS consisting of different segments of B7-H4 Extracellular domains were immobilized on flat bottom 96 well plates (Costar 9017) overnight at 4° C. […] Plates were washed twice with PBS+0.1% PS-20 and blocked with 200 μl/well PBS 10% FBS at RT for 1 hr. A titration of mouse anti-human B7-H4 antibodies 2H9, 2D1, 2E11, 6H3, 8E11 or H74 diluted in PBS 10% FBS were added to the plates and incubated at RT for 1 hr. Plates were washed three times and 100 μl 1 μg/ml anti-mouse Ig HRP (Sigma) was added to each well and incubated at RT for 1 hr. Plates were washed six times and 100 μl TMB substrate (SurModics) was added to each well for 5-15 mins. 100 μl stop solution (0.1M Sulfuric acid) was added to each well. Plates were read at Absorbance 450 nm by PerkinElmer EnVision 2104 Multilabel Reader.

[4] = molecular target: T3, B7-H4 fusion protein Variant 2: IgV residues 29-154 of SEQ ID NO:1 (human, UniProt Q7Z7D3 29-154); assay: as above
T3 construct: Human IgG1 Fc fusion protein; also called IgV only; not shown: human IgG1 Fc
T3 chain: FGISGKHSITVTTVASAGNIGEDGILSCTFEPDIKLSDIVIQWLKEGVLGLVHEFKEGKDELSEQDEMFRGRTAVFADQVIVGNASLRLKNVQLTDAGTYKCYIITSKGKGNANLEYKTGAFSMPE
Description: as §1

[5] = molecular target: T4, B7-H4 fusion protein Variant 3: IgV residues 29-158 of SEQ ID NO:1 (human, UniProt Q7Z7D3 29-158); assay: as above
T4 construct: Human IgG1 Fc fusion protein; also called IgV only; not shown: human IgG1 Fc
T4 chain: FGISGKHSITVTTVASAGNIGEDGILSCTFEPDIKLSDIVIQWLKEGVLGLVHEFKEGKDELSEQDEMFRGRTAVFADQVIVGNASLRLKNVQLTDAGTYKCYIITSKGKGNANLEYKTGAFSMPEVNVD
Description: as §1

[6] = molecular target: T5, human B7-H4 expressed on cells (human, UniProt Q7Z7D3 25-282); assay: flow cytometry on HEK293 cells expressing full length human B7-H4, labelled secondary antibody, 20 min at 4 C
T5 construct: the cell line is named under assay or readout; also called full length human B7-H4 on HEK293 cells; 293T.hB7-H4
T5 sequence: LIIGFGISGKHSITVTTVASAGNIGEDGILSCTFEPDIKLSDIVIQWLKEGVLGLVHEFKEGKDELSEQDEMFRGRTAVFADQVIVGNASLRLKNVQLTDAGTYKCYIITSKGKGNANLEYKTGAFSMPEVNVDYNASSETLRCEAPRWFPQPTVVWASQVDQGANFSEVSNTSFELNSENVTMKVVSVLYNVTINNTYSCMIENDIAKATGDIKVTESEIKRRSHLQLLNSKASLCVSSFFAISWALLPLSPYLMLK
Description: In order to determine the kinetics of binding of antibody 6H3 binding to B7-H4, with HEK293 cells that expressed full length human B7-H4 were incubated (for 20 minutes at 4° C. with 1×10⁵ in 200 μl wells) in the presence of varying concentrations of antibody (0, 0.01 ng, 0.03 ng, 0.1 ng, 0.3 ng, 1 ng, 10 ng, 30 ng, 100 ng, 300 ng, 1000 ng, 3000 ng, 10000 ng, or 30000 ng) in RPMI complete media (10% FBS). Binding was analyzed (FACS Canto II) using a FACS staining plate after incubation with a secondary antibody (anti-human Ig PE, anti-mouse Ig APC, anti-hamster Ig PE or anti-rat Ig PE).

T1 sequence (chain, as listed by the source limits assumed): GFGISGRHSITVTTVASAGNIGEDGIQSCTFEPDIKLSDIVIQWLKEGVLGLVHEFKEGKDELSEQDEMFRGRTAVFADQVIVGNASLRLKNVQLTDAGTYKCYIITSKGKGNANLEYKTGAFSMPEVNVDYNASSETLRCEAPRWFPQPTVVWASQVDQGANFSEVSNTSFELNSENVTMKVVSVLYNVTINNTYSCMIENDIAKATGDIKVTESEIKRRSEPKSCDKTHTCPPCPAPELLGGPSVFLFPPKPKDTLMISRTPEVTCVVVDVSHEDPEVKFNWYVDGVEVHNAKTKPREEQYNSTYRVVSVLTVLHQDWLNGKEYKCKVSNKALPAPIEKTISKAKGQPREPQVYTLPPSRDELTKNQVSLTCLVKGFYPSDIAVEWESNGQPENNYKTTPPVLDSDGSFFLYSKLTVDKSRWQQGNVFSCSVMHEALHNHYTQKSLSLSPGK

- EC50 (read off the curve) (B7-H4-Ig fusion protein [1]): ~10 ng/mL
B1: mouse 6H3.m1 (mouse IgG1) (antibody, V domains shown)
VH: EVQLQQSGPVLVKPGTSVKMSCKASGYTFTDYYMNWVKQSHGKSLEWIGVINPYNGDTTYNQKFKGKATLTVDKSSSTAYMEVNSLTFEDSAVYYCARYPESTYWGQGTLVTVSA
VL: DVVMTQTPLSLPVSLGDQASISCRSSQSLVHINGNTYLHWYLQKPGQSPKVLIYKVSNRFSGVPDRFSGSGSGTDFTLKISRVEAEDLGVYFCSQSTHVPLTFGAGTKLELK
notes: 6H3 as mouse IgG1; also called 6H3.mIgG1

- EC50 (read off the curve) (B7-H4-Ig fusion protein [2]): ~10 ng/mL
- binding result [3]: no binding (tested: 16 ng/ml)
- binding result [4]: no binding (tested: 16 ng/ml)
- binding result [5]: no binding (tested: 16 ng/ml)
- EC50 (read off the curve) [6]: ~6 nM
B2: murine anti-human B7-H4 antibody 6H3 (antibody, V domains shown)
VH: B1 VH
VL: B1 VL
notes: Mouse monoclonal antibody; also called clone 6H3; mouse anti-human B7-H4 6H3

Reference: patent publication US20150315275A1 (AstraZeneca / MedImmune, published 2015)
